Reference: patent publication EP0530937A1

Tests used:
[1] = molecular target: collagen receptor on human platelets (human); test: adhesion of platelets to a plate coated with collagen type I with 10 µl Superose-pool (0.5 mg protein/ml), 2 mM Mg2+
[2] = molecular target: collagen receptor on MTLn3 cells (rat mammary tumor cells) (rat); test: adhesion of 51Cr-labelled MTLn3 cells to wells coated with collagen type III with 2 µl Superose-pool (0.5 mg protein/ml)
[3] = molecular target: collagen receptor on MTLn3 cells (rat mammary tumor cells) (rat); test: adhesion of 51Cr-labelled MTLn3 cells to wells coated with collagen type III with 5 µl Superose-pool (0.5 mg protein/ml)
[4] = molecular target: collagen receptor on MTLn3 cells (rat mammary tumor cells) (rat); test: adhesion of 51Cr-labelled MTLn3 cells to wells coated with collagen type III with 10 µl Superose-pool (0.5 mg protein/ml)
[5] = molecular target: collagen receptor on human platelets (human); test: adhesion of platelets to a plate coated with collagen type I with 50 µl Superose-pool (0.5 mg protein/ml), 2 mM Mg2+

**Q.** Which adherent platelets per mm² (adherent platelets per mm²) [1] does the source give for “collagen-induced platelet aggregation inhibitor from saliva of Triatoma pallidipennis (as saliva or as partially purified "Superose"-pool)” here?
**A.** 12000

**Q.** What about the cell attachment (cpm) [2] of the same substance?
**A.** 2070 cpm

**Q.** And the cell attachment (cpm) [3]?
**A.** 1610 cpm

**Q.** And the cell attachment (cpm) [4]?
**A.** 1080 cpm

**Q.** What about the adherent platelets per mm² (adherent platelets per mm²) [5] of the same substance?
**A.** 6500
